Legend:
Settings in all cases: both partners purified
[1] = target: T1, activated BinB (act-B), trypsin-cleaved (Lysinibacillus sphaericus); assay: SEC; Superdex 200 HR 10/30, 50 mM Tris-HCl pH 9.0, 50 mM NaCl, 1 mM DTT; subunits alone or mixed 1:1, incubated 15 min at room temperature; typically 60 μM before and 18 μM after chromatography (total monomer); eluted band checked by SDS-PAGE and MALDI-TOF
T1 chain: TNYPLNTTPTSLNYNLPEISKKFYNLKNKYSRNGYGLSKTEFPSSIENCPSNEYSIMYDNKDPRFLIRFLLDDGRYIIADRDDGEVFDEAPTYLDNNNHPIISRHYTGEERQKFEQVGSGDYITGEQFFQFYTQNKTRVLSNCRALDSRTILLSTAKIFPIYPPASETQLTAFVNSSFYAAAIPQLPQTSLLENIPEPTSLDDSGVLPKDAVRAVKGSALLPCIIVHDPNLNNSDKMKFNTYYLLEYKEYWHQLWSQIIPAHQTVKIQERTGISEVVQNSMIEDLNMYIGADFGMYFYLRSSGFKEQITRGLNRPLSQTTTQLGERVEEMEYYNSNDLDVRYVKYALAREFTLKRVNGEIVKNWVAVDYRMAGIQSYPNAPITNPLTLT

[2] = target: T1, activated BinB (act-B), trypsin-cleaved; assay: AUC; sedimentation equilibrium, 20°C, 3–10 μM in monomer, 10 to 22.5 krpm, 50 mM Tris-HCl pH 9.0, 50 mM NaCl, 1 mM DTT, without detergent; global fit to an A+B heteroassociation model (SEDPHAT)
[3] = target: T1, activated BinB (act-B), trypsin-cleaved; assay: AUC; sedimentation equilibrium, 20°C, 3–10 μM in monomer, 10 to 22.5 krpm, same buffer with 35 mM C8E5 density matched with 16% D2O; global fit to an A+B heteroassociation model (SEDPHAT)

B1: activated BinA (act-A), trypsin-cleaved (domain or fragment)
chain: IDSFIPTEGKYIRVMDFYNSEYPFCIHAPSAPNGDIMTEICSRENNQYFIFFPTDDGRVIIANRHNGSVFTGEATSVVSDIYTGSPLQFFREVKRTMATYYLAIQNPESATDVRALEPHSHELPSRLYYTNNIENNSNILISNKEQIYLTLPSLPENEQYPKTPVLSGIDDIGPNQSEKSIIGSTLIPCIMVSDFISLGERMKTTPYYYVKHTQYWQSMWSALFPPGSKETKTEKSGITDTSQISMTDGINVSIGADFGLRFGNKTFGIKGGFTYDTKTQITNTSQLLIETTYTREYTNTENFPVRYTGYVLASEFTLHRSDGTQVNTIPWVALNDNYTTIARYPHFASEPLLGNTKIITDDQN
modifications: Trypsin-activated. Cleavage sites not given; UniProt mature chain limits used (MALDI about 40.8 kDa). Strain not given; P06575 chosen over the strain variant P05516. / Trypsin-activated. Cleavage
- stoichiometry N [1]: 1
- Ka [2]: 1.19e+06 M⁻¹
- Ka [3]: 1.92e+06 M⁻¹

Source: paper PMC4920411, “Binary Toxin Subunits of Lysinibacillus sphaericus Are Monomeric and Form Heterodimers after In Vitro Activation” (PLoS ONE, 2016)
